Experimental data from patent US20020058267A1 (Pfizer, published 2002).

Key:
[1] = molecular target: forty-residue β-amyloid peptide (human Aβ), aged (aggregated) unless said otherwise (human) (UniProt P05067); assay: cell-based or functional assay
[2] = molecular target: T1, BBP1 intracellular loop (pOZ339), Gal4 DNA-binding domain fusion (yeast; human, UniProt P04386 1-147); assay: yeast 2-hybrid, two independently derived clones of each strain against vector
T1 construct: also called BBP1 intracellular region; predicted intracellular domain of BBP1
Source text: BBP1ΔC was made by using the pACT2-specific oligo #6 with antisense oligo #9 (5′-CTCGAG TCAAGATATGGGCTTGAAAAAAC). After TA cloning, isolation of the EcoRI-XhoI fragment and cloning into pACT2, the resultant plasmid, pEK219, expressed BBP1 from residue 68 to 175. Sequences encoding the BBP1 intracellular loop were amplified using oligonucleotides #10 (5′-CCTTCC ATGGAAGTGGCAGTCGCATTGTCT) plus #11 (5′-[…] TCAAAACCCTACAGTGCAAAAC). This product, containing BBP1 codons 185 to 217, was digested with NcoI+XhoI and cloned into pAS2 cleaved with NcoI +SalI to generate pOZ339. Construction of all Gα protein expression plasmids utilized the BamHI site near the center of each rat cDNA sequence as the site of fusion in pACT2 (Kang, Y. -S., Kane, J., Kurjan, J., Stadel, J., and Tipper, D. (1990) Mol Cell Biol 10, 2582-2590). Sense primers annealed to sequences 5′ of the BamHI site; antisense primers annealed to sequences 3′ of the stop codon and included a SalI restriction site. Primers were: […]
Structural analysis of BBP1 indicated it contained a structural motif known to be a Gα protein activating sequence in the related G protein-coupled receptors. […] The predicted intracellular domain of BBP1 was expressed as a Gal4 DNA-binding domain with portions of rat Gαs, Gαo, or Gαl2 expressed as Gal4 activation domain fusion proteins. […]

[3] = molecular target: T2, human BAP42 fused to the Gal4 DNA-binding domain (BAP^BD; expression plasmid pEK162) (yeast; human, UniProt P04386 1-147; P05067 672-713); assay: yeast 2-hybrid
T2 construct: The screening strain also expressed free BAP42 (pEK149); also called BAP fusion protein; human BAP fusion protein
Description: These fusion proteins were assayed with the BAP fusion protein and responses compared to those of strains expressing the larger BBP1Δtm protein. The BBP1ΔC protein induced a weak Y2H response (compare BBP1ΔC to vector, FIG. 4), but the BBP1ΔN protein, containing the first tm domain and adjacent amino-proximal sequences produced a response only slightly weaker than that observed with BBP1Δtm.
Bioassays: Strains were grown overnight in 2 ml SC medium lacking leucine and tryptophan to a density of approximately 7×10⁷ cells per ml. Cells were counted and 10-fold serial dilutions made from […] in sterile water. These samples were spotted in 5 μl aliquots on SC medium lacking leucine, tryptophan and histidine and containing 25 mM 3-amino-triazole. Plates were incubated at 30° C. for 2 to 3 days. Positive protein/protein interactions were identified by increased prototrophic growth compared to control strains expressing the Gal4 DNA-binding domain fusion protein plus an irrelevant transcriptional activation domain fusion protein (or simply containing the pACT vector without inserted sequences). This assay method was highly reproducible and provided for the detection of subtle inductions of growth mediated by the specific interaction between target proteins. […]

BBP1 expressed in transfected cells from the BBP1 expression plasmid pBBP (pOZ363) (receptor)
% apoptotic nuclei, Ntera2 neurons, 10 µM aged Aβ for 48 hrs [1]: 22.3% | % apoptotic nuclei, Ntera2 stem cells, 10 µM aged Aβ for 48 hrs [1]: 12.3% | cell viability after aggregated Aβ peptide for 48 hrs (loss of total cells) (% of total cells) [1]: 22

B1: rat Gαi2 C-terminal region (pOZ348), Gal4 activation domain fusion (other, UniProt P04897 213-355, looked up, not shown: large carriers)
chain: IHCFEGVTAIIFCVALSAYDLVLAEDEEMNRMHESMKLFDSICNNKWFTDTSIILFLNKKDLFEEKITQSPLTICFPEYTGANKYDEAASYIQSKFEDLNKRKDTKEIYTHFTCATDTKNVQFVFDAVTDVIIKNNLKDCGLF
notes: range 213-355; also called Gai2
binding result [2]: binds

B2: rat Gαs C-terminal region (pOZ345), Gal4 activation domain fusion (other, UniProt P63095 235-394, looked up, not shown: large carriers)
chain: IQCFNDVTAIIFVVASSSYNMVIREDNQTNRLQEALNLFKSIWNNRWLRTISVILFLNKQDLLAEKVLAGKSKIEDYFPEFARYTTPEDATPEPGEDPRVTRAKYFIRDEFLRISTASGDGRHYCYPHFTCAVDTENIRRVFNDCRDIIQRMHLRQYELL
notes: range 235-394; also called Gas
binding result [2]: binds

B3: BBP1ΔN (pEK216), Gal4 activation domain fusion (other, not shown: small tags and cut ends)
chain: PKINDATQEPVNCTNYTAHVSCFPAPNITCKDSSGNETHFTGNEVGFFKPISCRNVNGYSYKVAVALSLFLGWLGADRF
notes: Encodes the first tm domain plus the preceding 52 amino acids; also called BBP1?N (so in the source); ?N construct
binding result [3]: binds
